The values below come from patent US20220372147A1 (UNIVERSIT T STUTTGART, published 2022).

Assay [1] deals with T1, HER3-Fc fusion protein, extracellular domain (ECD) of HER3 (aa 21-643) fused to an Fc part (UniProt P21860 21-643).
T1 construct: range 21-643; not shown: Fc part
Briefly: ELISA, immobilized HER3-Fc, anti-His-HRP detection.

Assay [2] addresses T2, His-tagged HER3 protein, extracellular domain (ECD) of HER3 (aa 21-643) (UniProt P21860 21-643).
T2 construct: range 21-643; also called HER3-His; not shown: His-tag
Nature of the assay: ELISA, immobilized HER3-His, anti-human Fc-HRP detection.

Assay [3] has as its target T3, HER3 on HER3-expressing cancer cells (LIM1215, BT474) (UniProt P21860 20-1342, limits assumed). Briefly: cell-based or functional assay.
For assay [4], the target named is T4, CD3 on CD3-expressing Jurkat cells (human, UniProt P07766 23-207).
T4 construct: whole, on cells
T4 sequence (P07766 23-207): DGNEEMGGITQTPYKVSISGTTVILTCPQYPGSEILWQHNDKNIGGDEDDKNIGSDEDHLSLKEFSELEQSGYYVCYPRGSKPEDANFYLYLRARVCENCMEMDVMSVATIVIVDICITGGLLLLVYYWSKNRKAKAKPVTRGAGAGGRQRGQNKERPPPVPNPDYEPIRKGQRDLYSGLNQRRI
Nature of the assay: flow cytometry on CD3-expressing Jurkat cells, PE anti-human Fc. (In general: In flow cytometry, cells or beads pass a laser one at a time.)

The target in assay [5] is T3, HER3 on HER3-expressing cancer cells …. Briefly: flow cytometry on HER3-expressing BT474 cells, PE anti-human Fc.
Assay [6] has the same target. Nature of the assay: flow cytometry on HER3-expressing LIM1215 cells, PE anti-human Fc.
The target of assay [7] is T5, MET Fc fusion protein, extracellular domain (ECD) of MET (aa 25-787) (UniProt P08581 25-787).
T5 construct: range 25-787; not shown: Fc part
T5 sequence (P08581 25-787 limits assumed): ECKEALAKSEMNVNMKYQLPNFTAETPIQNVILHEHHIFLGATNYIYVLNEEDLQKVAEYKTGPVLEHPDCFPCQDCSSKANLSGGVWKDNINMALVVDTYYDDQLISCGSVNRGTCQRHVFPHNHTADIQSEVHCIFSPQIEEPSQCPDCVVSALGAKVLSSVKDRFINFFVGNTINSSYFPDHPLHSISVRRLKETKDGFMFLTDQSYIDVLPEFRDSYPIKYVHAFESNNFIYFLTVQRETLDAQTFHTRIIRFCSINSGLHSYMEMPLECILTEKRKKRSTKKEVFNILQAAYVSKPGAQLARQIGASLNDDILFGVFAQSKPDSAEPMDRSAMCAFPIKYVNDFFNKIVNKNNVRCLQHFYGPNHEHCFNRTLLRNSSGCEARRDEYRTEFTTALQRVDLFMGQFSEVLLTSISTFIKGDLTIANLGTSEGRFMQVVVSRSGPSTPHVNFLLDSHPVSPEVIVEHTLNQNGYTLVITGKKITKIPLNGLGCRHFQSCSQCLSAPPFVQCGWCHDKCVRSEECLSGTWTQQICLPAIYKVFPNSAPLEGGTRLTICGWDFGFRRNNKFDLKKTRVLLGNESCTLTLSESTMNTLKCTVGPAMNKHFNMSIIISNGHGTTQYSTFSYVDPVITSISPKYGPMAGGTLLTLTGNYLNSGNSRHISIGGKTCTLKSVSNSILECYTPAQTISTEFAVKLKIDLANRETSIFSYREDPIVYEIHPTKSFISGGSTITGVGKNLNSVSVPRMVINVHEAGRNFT
Nature of the assay: ELISA, immobilized MET-Fc, anti-human Fab-HRP detection. Background: In an ELISA, binding on a coated surface is turned into a signal by an enzyme label.

B1: Fv3-43-hetEHD2 eFab molecule 8 (C102T Fd; C14T,N39Q light chain) (Fab, V domains shown)
VH: QVQLQQSGPGLVKPSQTLSLTCAISGDSVSSNRAAWNWIRQSPSRGLEWLGRTYYRSKWYNDYAQSLKSRITINPDTPKNQFSLQLNSVTPEDTAVYYCARDGQLGLDALDIWGQGTMVTVSS
VL: QAGLTQPPAVSVAPGQTASITCGRDNIGSRSVHWYQQKPGQAPVLVVYDDSDRPAGIPERFSGSNYENTATLTISRVEAGDEADYYCQVWGITSDHVVFGGGTKLTVLD
notes: Monovalent anti-HER3 Fab-like molecule; His-tag on the Fd chain
By EC50 is commonly meant the concentration giving half of the maximal effect. Read a high EC50 as lower potency in that assay. Regarding B1, in assay [1], the EC50 was 6.2 nM.

B2: bivalent and monospecific eIg molecule targeting HER3 (antibody, V domains shown)
VH: QVQLQQSGPGLVKPSQTLSLTCAISGDSVSSNRAAWNWIRQSPSRGLEWLGRTYYRSKWYNDYAQSLKSRITINPDTPKNQFSLQLNSVTPEDTAVYYCARDGQLGLDALDIWGQGTMVTVSS
VL: QAGLTQPPAVSVAPGQTASITCGRDNIGSRSVHWYQQKPGQAPVLVVYDDSDRPAGIPERFSGSNYENTATLTISRVEAGDEADYYCQVWGITSDHVVFGGGTKLTVLG
notes: Homodimerizing Fc; also called monospecific, bivalent eIg antibody; anti-HER3 bivalent eIg
On to B2, for which, in assay [2], the EC50 was 1.4 nM.

B3: Fv3-43-hetEHD2 eFab molecule 3 (C102N Fd; C14A,N39Q light chain) (Fab, V domains shown)
VH: QVQLQQSGPGLVKPSQTLSLTCAISGDSVSSNRAAWNWIRQSPSRGLEWLGRTYYRSKWYNDYAQSLKSRITINPDTPKNQFSLQLNSVTPEDTAVYYCARDGQLGLDALDIWGQGTMVTVSS
VL: QAGLTQPPAVSVAPGQTASITCGRDNIGSRSVHWYQQKPGQAPVLVVYDDSDRPAGIPERFSGSNYENTATLTISRVEAGDEADYYCQVWGITSDHVVFGGGTKLTVLD
notes: Monovalent anti-HER3 Fab-like molecule; His-tag on the Fd chain; also called C14A,N39Q:N39,C102N
B3 came in with an EC50 in assay [1] of 4.8 nM.

B4: Fv3-43-hetEHD2 eFab molecule 7 (C102T Fd; C14W,N39Q light chain) (Fab, V domains shown)
VH: QVQLQQSGPGLVKPSQTLSLTCAISGDSVSSNRAAWNWIRQSPSRGLEWLGRTYYRSKWYNDYAQSLKSRITINPDTPKNQFSLQLNSVTPEDTAVYYCARDGQLGLDALDIWGQGTMVTVSS
VL: QAGLTQPPAVSVAPGQTASITCGRDNIGSRSVHWYQQKPGQAPVLVVYDDSDRPAGIPERFSGSNYENTATLTISRVEAGDEADYYCQVWGITSDHVVFGGGTKLTVLD
notes: as for B1
With B4, it took 7.1 nM to reach a half-maximal effect in assay [1] (EC50).

B5: Fv3-43-hetEHD2 eFab molecule 9 (C102S Fd; C14S,N39Q light chain) (Fab, V domains shown)
VH: QVQLQQSGPGLVKPSQTLSLTCAISGDSVSSNRAAWNWIRQSPSRGLEWLGRTYYRSKWYNDYAQSLKSRITINPDTPKNQFSLQLNSVTPEDTAVYYCARDGQLGLDALDIWGQGTMVTVSS
VL: QAGLTQPPAVSVAPGQTASITCGRDNIGSRSVHWYQQKPGQAPVLVVYDDSDRPAGIPERFSGSNYENTATLTISRVEAGDEADYYCQVWGITSDHVVFGGGTKLTVLD
notes: N-glycan only on the Fd EHD2-2 domain; also called originally used eFab (C14S,N39Q:N39,C102S)
For the molecule B5, the EC50 in assay [1] was determined as 3.7 nM.

B6: Fv3-43-hetEHD2 eFab molecule 1 (C102A Fd; C14A,N39Q light chain) (Fab, V domains shown)
VH: QVQLQQSGPGLVKPSQTLSLTCAISGDSVSSNRAAWNWIRQSPSRGLEWLGRTYYRSKWYNDYAQSLKSRITINPDTPKNQFSLQLNSVTPEDTAVYYCARDGQLGLDALDIWGQGTMVTVSS
VL: QAGLTQPPAVSVAPGQTASITCGRDNIGSRSVHWYQQKPGQAPVLVVYDDSDRPAGIPERFSGSNYENTATLTISRVEAGDEADYYCQVWGITSDHVVFGGGTKLTVLD
notes: Monovalent anti-HER3 Fab-like molecule; His-tag on the Fd chain; also called C14A,N39Q:N39,C102A
As for B6, in assay [1], the EC50 amounted to 12.1 nM.

B7: Fv3-43-hetEHD2 eFab molecule 6 (C102N Fd; C14T,N39Q light chain) (Fab, V domains shown)
VH: QVQLQQSGPGLVKPSQTLSLTCAISGDSVSSNRAAWNWIRQSPSRGLEWLGRTYYRSKWYNDYAQSLKSRITINPDTPKNQFSLQLNSVTPEDTAVYYCARDGQLGLDALDIWGQGTMVTVSS
VL: QAGLTQPPAVSVAPGQTASITCGRDNIGSRSVHWYQQKPGQAPVLVVYDDSDRPAGIPERFSGSNYENTATLTISRVEAGDEADYYCQVWGITSDHVVFGGGTKLTVLD
notes: Monovalent anti-HER3 Fab-like molecule; His-tag on the Fd chain; also called C14T,N39Q:N39,C102N
In assay [1], B7 gave an EC50 of 4.1 nM.

B8: Fv3-43-hetEHD2 eFab molecule 5 (C102A Fd; C14W,N39Q light chain) (Fab, V domains shown)
VH: QVQLQQSGPGLVKPSQTLSLTCAISGDSVSSNRAAWNWIRQSPSRGLEWLGRTYYRSKWYNDYAQSLKSRITINPDTPKNQFSLQLNSVTPEDTAVYYCARDGQLGLDALDIWGQGTMVTVSS
VL: QAGLTQPPAVSVAPGQTASITCGRDNIGSRSVHWYQQKPGQAPVLVVYDDSDRPAGIPERFSGSNYENTATLTISRVEAGDEADYYCQVWGITSDHVVFGGGTKLTVLD
notes: as for B1
B8 yielded an EC50 in assay [1] of 11 nM.

B9: Fv3-43-hetEHD2 eFab molecule 4 (C102T Fd; C14N,N39Q light chain) (Fab, V domains shown)
VH: QVQLQQSGPGLVKPSQTLSLTCAISGDSVSSNRAAWNWIRQSPSRGLEWLGRTYYRSKWYNDYAQSLKSRITINPDTPKNQFSLQLNSVTPEDTAVYYCARDGQLGLDALDIWGQGTMVTVSS
VL: QAGLTQPPAVSVAPGQTASITCGRDNIGSRSVHWYQQKPGQAPVLVVYDDSDRPAGIPERFSGSNYENTATLTISRVEAGDEADYYCQVWGITSDHVVFGGGTKLTVLD
notes: Monovalent anti-HER3 Fab-like molecule; His-tag on the Fd chain; also called C14N,N39Q:N39,C102T
Molecule B9 came in with an EC50 in assay [1] of 3 nM.

B10: Fv3-43-hetEHD2 eFab molecule 2 (C102W Fd; C14T,N39Q light chain) (Fab, V domains shown)
VH: QVQLQQSGPGLVKPSQTLSLTCAISGDSVSSNRAAWNWIRQSPSRGLEWLGRTYYRSKWYNDYAQSLKSRITINPDTPKNQFSLQLNSVTPEDTAVYYCARDGQLGLDALDIWGQGTMVTVSS
VL: QAGLTQPPAVSVAPGQTASITCGRDNIGSRSVHWYQQKPGQAPVLVVYDDSDRPAGIPERFSGSNYENTATLTISRVEAGDEADYYCQVWGITSDHVVFGGGTKLTVLD
notes: as for B1
Molecule B10 registered an EC50 in assay [1] of 7.3 nM.

B11: bispecific, trivalent eIg-Fab4 targeting HER3 and CD3 (bispecific antibody)
light 1: QAGLTQPPAVSVAPGQTASITCGRDNIGSRSVHWYQQKPGQAPVLVVYDDSDRPAGIPERFSGSNYENTATLTISRVEAGDEADYYCQVWGITSDHVVFGGGTKLTVLGQPKAAPSVTLFPPSSEELQANKATLVCLISDFYPGAVTVAWKADSSPVKAGVETTTPSKQSNNKYAASSYLSLTPEQWKSHRSYSCQVTHEGSTVEKTVAPTECS
heavy 1: not shown
light 2: not shown
heavy 2: QVQLQQSGPGLVKPSQTLSLTCAISGDSVSSNRAAWNWIRQSPSRGLEWLGRTYYRSKWYNDYAQSLKSRITINPDTPKNQFSLQLNSVTPEDTAVYYCARDGQLGLDALDIWGQGTMVTVSSASTKGPSVFPLAPSSKSTSGGTAALGCLVKDYFPEPVTVSWNSGALTSGVHTFPAVLQSSGLYSLSSVVTVPSSSLGTQTYICNVNHKPSNTKVDKKVEPKSCGGSGGGGSGGQVQLVQSGAEVKKPGSSVKVSCKASGGTFSGYTMNWVRQAPGQGLEWMGLINPYKGVSTYNGKFKDRVTITADKSTSTAYMELSSLRSEDTAVYYCARSGYYGDSDWYFDVWGQGTLVTVSSDFTPPTVKILQSSCDGGGHFPPTIQLLCLVSGYTPGTINITWLEDGQVMDVDLSTASTTQEGELASTQSELTLSQKHWLSDRTYTCQVTYQGHTFEDSTKKSADSNGTDKTHTCPPCPAPPVAGPSVFLFPPKPKDTLMISRTPEVTCVVVDVSHEDPEVKFNWYVDGVEVHNAKTKPREEQYNSTYRVVSVLTVLHQDWLNGKEYKCKVSNKGLPSSIEKTISKAKGQPREPQVCTLPPSRDELTKNQVSLSCAVKGFYPSDIAVEWESNGQPENNYKTTPPVLDSDGSFFLVSKLTVDKSRWQQGNVFSCSVMHEALHNHYTQKSLSLSPGK
Take B11: the “EC50 value in cell killing (PBMC-mediated cytotoxicity on BT-474 cells, crystal violet)” value in assay [3] was 0.2 nM. The “EC50 value in cell killing (PBMC-mediated cytotoxicity on LIM1215 cells, crystal violet)” value in assay [3] is 0.1 nM. Also, the EC50 stood at 5.9 nM in assay [4], 0.6 nM in assay [5] and 0.21 nM in assay [6].

B12: bispecific, trivalent eIg-Fab2 targeting HER3 and CD3 (bispecific antibody)
light 1: QAGLTQPPAVSVAPGQTASITCGRDNIGSRSVHWYQQKPGQAPVLVVYDDSDRPAGIPERFSGSNYENTATLTISRVEAGDEADYYCQVWGITSDHVVFGGGTKLTVLGQPKAAPSVTLFPPSSEELQANKATLVCLISDFYPGAVTVAWKADSSPVKAGVETTTPSKQSNNKYAASSYLSLTPEQWKSHRSYSCQVTHEGSTVEKTVAPTECS
light 2: not shown
heavy 1: not shown
heavy 2: not shown
On to B12, for which the EC50 in assay [4] came out at 0.2 nM; in assay [5], 1.7 nM; in assay [6] it was 1.3 nM.

B13: bispecific bivalent anti-cMET x anti-HER3 eIgG1 (EHD2 configuration HC1-LC2) (bispecific antibody)
light 1: QAGLTQPPAVSVAPGQTASITCGRDNIGSRSVHWYQQKPGQAPVLVVYDDSDRPAGIPERFSGSNYENTATLTISRVEAGDEADYYCQVWGITSDHVVFGGGTKLTVLGQPKAAPSVTLFPPSSEELQANKATLVCLISDFYPGAVTVAWKADSSPVKAGVETTTPSKQSNNKYAASSYLSLTPEQWKSHRSYSCQVTHEGSTVEKTVAPTECS
heavy 1: not shown
heavy 2: not shown
light 2: DIQMTQSPSSLSASVGDRVTITCKSSQSLLYTSSQKNYLAWYQQKPGKAPKLLIYWASTRESGVPSRFSGSGSGTDFTLTISSLQPEDFATYYCQQYYAYPWTFGQGTKVEIKRTDFTPPTVKILQSSCDGGGHFPPTIQLLCLVSGYTPGTINITWLEDGQVMDVDLSTASTTQEGELASTQSELTLSQKHWLSDRTYTCQVTYQGHTFEDSTKKSADSN
notes: Four different polypeptide chains, knob-into-hole Fc
Consider B13, for which the EC50 in assay [7] came out at 3.8 nM; in assay [2] it was 1 nM.

B14: bispecific bivalent anti-cMET x anti-HER3 eIgG2 (EHD2 configuration HC2-LC1) (bispecific antibody)
light 1: QAGLTQPPAVSVAPGQTASITCGRDNIGSRSVHWYQQKPGQAPVLVVYDDSDRPAGIPERFSGSNYENTATLTISRVEAGDEADYYCQVWGITSDHVVFGGGTKLTVLGQPKAAPSVTLFPPSSEELQANKATLVCLISDFYPGAVTVAWKADSSPVKAGVETTTPSKQSNNKYAASSYLSLTPEQWKSHRSYSCQVTHEGSTVEKTVAPTECS
heavy 1: not shown
heavy 2: not shown
light 2: DIQMTQSPSSLSASVGDRVTITCKSSQSLLYTSSQKNYLAWYQQKPGKAPKLLIYWASTRESGVPSRFSGSGSGTDFTLTISSLQPEDFATYYCQQYYAYPWTFGQGTKVEIKRTDFTPPTVKILQSSSDGGGHFPPTIQLLCLVSGYTPGTIQITWLEDGQVMDVDLSTASTTQEGELASTQSELTLSQKHWLSDRTYTCQVTYQGHTFEDSTKKCADSN
notes: as for B13
For the molecule B14, the EC50 came out at 5.4 nM in assay [7] and 1.4 nM in assay [2].
